This is an account of results in patent US7125969, “ETS-related gene overexpressed in human breast and epithelial cancers” (The Regents of the University of California).

The target of data set [1] is T1, ESX (full-length, His-tagged) (Homo sapiens, UniProt P78545 SEQ:1-371).
T1 sequence: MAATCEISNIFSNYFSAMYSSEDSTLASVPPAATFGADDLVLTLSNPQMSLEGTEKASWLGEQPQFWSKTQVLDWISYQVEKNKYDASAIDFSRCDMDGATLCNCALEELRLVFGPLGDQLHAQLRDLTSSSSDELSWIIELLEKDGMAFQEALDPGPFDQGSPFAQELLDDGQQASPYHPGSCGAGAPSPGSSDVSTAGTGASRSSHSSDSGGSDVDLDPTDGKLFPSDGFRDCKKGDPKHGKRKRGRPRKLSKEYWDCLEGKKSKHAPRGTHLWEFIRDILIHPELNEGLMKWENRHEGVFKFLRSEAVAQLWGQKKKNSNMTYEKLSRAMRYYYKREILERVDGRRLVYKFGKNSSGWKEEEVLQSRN
Briefly: EMSA; high-affinity sequence-specific; ~1 ng protein, 0.3 pmol probe. The settings on record: tags: His-tag (pRSETA), E. coli BL21(DE3)pLysS; label: end-labeled. The procedure:
(§1) Electrophoretic mobility shift assay (EMSA) was performed as previously described (Scott et al. (1994) *J. Biol. Chem.* 269: 19848–19858), using approximately one ng of ESX protein per condition and 0.3 pmol of end-labeled TA5 probe (+cold competitor). TA5 is a duplexed 31-mer oligonucleotide from the HER2/neu promoter, extending from −50 bp to −20 bp relative to the major transcriptional start site, that includes an Ets response element.

Data set [2] has as its target T2, ESX (271-371, ETS DNA-binding domain) (Homo sapiens, UniProt P78545 SEQ:271-371).
T2 sequence: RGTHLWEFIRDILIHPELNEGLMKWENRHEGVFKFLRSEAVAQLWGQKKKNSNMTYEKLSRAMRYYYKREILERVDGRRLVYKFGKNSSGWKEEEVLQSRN
The experiment in a line: EMSA; affinity comparable to full-length. The settings on record: label: end-labeled.

For data set [3], the target named is T1, ESX (full-length, His-tagged). The experiment in a line: competition; flanking mutation; relatively effective cold competitor at 50-fold excess. The note with it: tags: His-tag (pRSETA), E. coli BL21(DE3)pLysS. As to the method:
(§2) Five different competing unlabeled (cold) oligonucleotides containing specific mutations in the wild-type (WT) TA5 (SEQ ID NO:32) sequence, m1–m5 (SEQ ID NOs:33–37) were added at 50-fold molar excess; gel lanes containing the excess cold competitors are labeled. […] The antisense strand sequence as shown (~40 bp to ~26 bp upstream of major transcriptional start site in HER2/neu promoter) is marked with asterisk at the hypersensitivity site within Ets response element (GGAA on sense strand). FIGS. 8c and 8d show the induction of CAT activity from two different ETS-responsive reporter constructs (p3TA5-BLCAT5, pHER2-CAT) in COS cells cotransfected with an ESX expression plasmid (pcDNAI-ESX). Mutant reporter plasmids (p3TA5P-BLCAT5, pHER2m-CAT) are identical to their normal counterparts except for alterations in the Ets response element within the TA5 sequence (GGAA to GAGA and GGAA to TTAA, respectively).
as §1

Data set [4] shares this target. The experiment in a line: competition; GGAA core mutation; fails to compete at 50-fold excess. The settings on record: tags: His-tag (pRSETA), E. coli BL21(DE3)pLysS. As to the method: as §2, §1

B1: TA5 WT (HER2/neu promoter -50 to -20) (dsDNA)
DNA 1: GGAGGAGGGCTGCTTGAGGAAGTATAAGAAT
DNA 2: ATTCTTATACTTCCTCAAGCAGCCCTCCTCC
Consider B1, for which the binding result in data set [1] and in data set [2] was “binds” throughout.

B2: TA5 m1 (dsDNA)
DNA 1: GGAGGAGGTATGCTTGAGGAAGTATAAGAAT
DNA 2: ATTCTTATACTTCCTCAAGCATACCTCCTCC
B2: the binding result in data set [3] is reported as “binds”.

B3: TA5 m4 (dsDNA)
DNA 1: GGAGGAGGGCTGCTTGACCAAGTATAAGAAT
DNA 2: ATTCTTATACTTGGTCAAGCAGCCCTCCTCC
B3: the binding result in data set [4] is recorded as “no binding”.

B4: TA5 m3 (dsDNA)
DNA 1: GGAGGAGGGCTGCTTGAGAGAGTATAAGAAT
DNA 2: ATTCTTATACTCTCTCAAGCAGCCCTCCTCC
For B4, in data set [4], the binding result was “no binding”.

B5: TA5 m5 (dsDNA)
DNA 1: GGAGGAGGGCTGCTTGAGGAAGCATAAGAAT
DNA 2: ATTCTTATGCTTCCTCAAGCAGCCCTCCTCC
As to B5, the binding result in data set [3] is “binds”.

B6: TA5 m2 (dsDNA)
DNA 1: GGAGGAGGGCTGCTTGCGGAAGTATAAGAAT
DNA 2: ATTCTTATACTTCCGCAAGCAGCCCTCCTCC
In the case of B6, the binding result in data set [3] is recorded as “binds”.
